From patent publication US20200054723A1 (ALLAKOS, published 2020)
Positions count from the first letter of the chain named. “And” between values parts separate entries of the source, which are not always exact repeats. Equal entries are not always repeated.

Key:
[1] = molecular target: T1, human Siglec-8 on human cells (eosinophils, mast cells) (human, UniProt Q9NYZ4 17-499); assay: cell-based or functional assay
[2] = molecular target: T2, baboon Siglec-8 Domains 1, 2, and 3 Fusion Protein (olive baboon (Papio anubis)); assay: ELISA, baboon cross-reactivity
T2 construct: fused to human Ig-Fc
T2 sequence (chain, as listed by the source limits assumed): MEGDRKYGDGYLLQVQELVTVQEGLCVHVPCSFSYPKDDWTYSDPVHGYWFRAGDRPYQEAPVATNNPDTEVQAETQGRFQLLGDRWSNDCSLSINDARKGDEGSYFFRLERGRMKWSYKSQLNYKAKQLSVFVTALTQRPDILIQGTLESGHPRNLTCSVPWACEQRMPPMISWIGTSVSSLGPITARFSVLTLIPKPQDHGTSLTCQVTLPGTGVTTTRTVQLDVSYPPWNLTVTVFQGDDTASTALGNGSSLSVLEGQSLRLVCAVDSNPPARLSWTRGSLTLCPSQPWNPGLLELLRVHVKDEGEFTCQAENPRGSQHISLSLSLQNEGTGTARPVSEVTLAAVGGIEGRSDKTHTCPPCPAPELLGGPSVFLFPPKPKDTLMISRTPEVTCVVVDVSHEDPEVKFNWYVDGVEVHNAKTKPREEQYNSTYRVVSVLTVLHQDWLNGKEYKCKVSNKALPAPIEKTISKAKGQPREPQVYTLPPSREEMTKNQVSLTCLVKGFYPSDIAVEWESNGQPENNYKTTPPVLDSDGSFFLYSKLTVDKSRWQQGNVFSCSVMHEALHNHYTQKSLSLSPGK
Procedure: (§1) To identify the region comprising the epitope for anti-Siglec-8 antibodies, fusion proteins containing each of the Siglec-8 extracellular domains fused to human Ig-Fc were expressed and purified from CHO cells.
(§2) For the antibody binding assays, ELISA plates (MaxiSorp; Nunc) were coated overnight at 4° C. with fusion protein at 0.2 μg/ml and blocked for 1 hour at room temperature with 2% BSA in PBS. Antibodies at 1 μg/ml were added and the plates were incubated for 2 hours at room temperature. After washing the plates, horseradish peroxidase conjugated secondary antibody was added and the plates were incubated for 1 hour. Secondary antibodies were anti-human H+L HRP (Jackson ImmunoResearch, Catalog Number 709-035-149) for humanized antibodies or anti-mouse H+L HRP (Jackson ImmunoResearch, Catalog Number 715-035-151) for mouse antibodies. The plates were developed with TMB Substrate (Sigma, Catalog Number T0440-1L).

[3] = molecular target: T3, human Siglec-8 Domains 1, 2, and 3 Fusion Protein (human); assay: Western blot of reduced SDS-PAGE (linear epitope)
T3 construct: fused to human Ig-Fc, expressed in CHO cells; also called Domain 1 + 2 + 3-Fc
T3 sequence (chain, as listed by the source limits assumed): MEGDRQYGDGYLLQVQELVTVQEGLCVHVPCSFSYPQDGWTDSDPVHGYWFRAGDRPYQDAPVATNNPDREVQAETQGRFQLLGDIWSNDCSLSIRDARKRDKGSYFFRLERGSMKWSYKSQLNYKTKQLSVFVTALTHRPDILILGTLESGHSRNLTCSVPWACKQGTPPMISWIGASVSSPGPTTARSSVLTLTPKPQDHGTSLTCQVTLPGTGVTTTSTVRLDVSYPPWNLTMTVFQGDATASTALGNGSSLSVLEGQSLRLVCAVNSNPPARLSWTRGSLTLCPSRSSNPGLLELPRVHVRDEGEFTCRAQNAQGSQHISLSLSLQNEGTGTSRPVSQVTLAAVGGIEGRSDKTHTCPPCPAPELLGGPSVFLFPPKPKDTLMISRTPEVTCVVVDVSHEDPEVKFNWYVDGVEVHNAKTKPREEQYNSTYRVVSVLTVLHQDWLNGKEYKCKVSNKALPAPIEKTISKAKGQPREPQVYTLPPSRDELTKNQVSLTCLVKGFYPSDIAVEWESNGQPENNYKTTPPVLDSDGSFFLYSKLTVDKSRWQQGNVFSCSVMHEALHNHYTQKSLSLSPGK

[4] = molecular target: T1, human Siglec-8 on human cells …; assay: cell-based or functional assay; remark: listed apart in the source
[5] = molecular target: T4, recombinant human Siglec-8 extracellular domain (ECD) (human, UniProt Q9NYZ4 17-363); assay: ELISA, coated Siglec-8 ECD
T4 construct: extracellular domain; also called Siglec-8 ECD; full Siglec-8 ECD
T4 sequence (Q9NYZ4 17-363): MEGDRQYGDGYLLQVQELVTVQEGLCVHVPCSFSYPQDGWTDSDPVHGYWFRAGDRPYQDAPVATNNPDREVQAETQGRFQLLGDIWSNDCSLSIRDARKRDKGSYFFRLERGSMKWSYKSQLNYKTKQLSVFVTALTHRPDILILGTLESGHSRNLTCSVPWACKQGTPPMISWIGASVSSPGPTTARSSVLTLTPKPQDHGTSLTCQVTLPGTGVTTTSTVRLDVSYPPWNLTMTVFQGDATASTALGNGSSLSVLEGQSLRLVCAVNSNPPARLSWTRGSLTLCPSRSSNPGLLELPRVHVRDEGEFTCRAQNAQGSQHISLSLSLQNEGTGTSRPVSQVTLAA

[6] = molecular target: T4, recombinant human Siglec-8 …; assay: ELISA, coated Siglec-8 ECD; remark: listed apart in the source
[7] = molecular target: T5, human Siglec-8 Domain 1 Fusion Protein (human); assay: ELISA, coated fusion protein, antibody at 1 µg/ml
T5 construct: fused to human Ig-Fc, expressed in CHO cells; also called Domain 1-Fc
T5 sequence (chain, as listed by the source limits assumed): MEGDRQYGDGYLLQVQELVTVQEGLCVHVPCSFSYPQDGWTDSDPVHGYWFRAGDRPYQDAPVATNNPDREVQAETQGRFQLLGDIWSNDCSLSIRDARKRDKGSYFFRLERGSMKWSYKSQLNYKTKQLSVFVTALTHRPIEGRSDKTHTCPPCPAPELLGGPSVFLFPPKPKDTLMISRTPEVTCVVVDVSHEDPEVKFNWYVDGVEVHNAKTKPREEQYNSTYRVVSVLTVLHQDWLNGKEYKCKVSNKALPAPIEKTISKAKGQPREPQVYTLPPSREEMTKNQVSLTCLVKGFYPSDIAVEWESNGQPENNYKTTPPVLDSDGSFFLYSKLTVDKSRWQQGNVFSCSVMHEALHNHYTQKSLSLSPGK
Procedure: as §1, §2

[8] = molecular target: T6, human Siglec-8 Domains 1 and 2 Fusion Protein (human); assay: ELISA, coated fusion protein, antibody at 1 µg/ml
T6 construct: fused to human Ig-Fc, expressed in CHO cells; also called Domain 1 + 2-Fc
T6 sequence (chain, as listed by the source limits assumed): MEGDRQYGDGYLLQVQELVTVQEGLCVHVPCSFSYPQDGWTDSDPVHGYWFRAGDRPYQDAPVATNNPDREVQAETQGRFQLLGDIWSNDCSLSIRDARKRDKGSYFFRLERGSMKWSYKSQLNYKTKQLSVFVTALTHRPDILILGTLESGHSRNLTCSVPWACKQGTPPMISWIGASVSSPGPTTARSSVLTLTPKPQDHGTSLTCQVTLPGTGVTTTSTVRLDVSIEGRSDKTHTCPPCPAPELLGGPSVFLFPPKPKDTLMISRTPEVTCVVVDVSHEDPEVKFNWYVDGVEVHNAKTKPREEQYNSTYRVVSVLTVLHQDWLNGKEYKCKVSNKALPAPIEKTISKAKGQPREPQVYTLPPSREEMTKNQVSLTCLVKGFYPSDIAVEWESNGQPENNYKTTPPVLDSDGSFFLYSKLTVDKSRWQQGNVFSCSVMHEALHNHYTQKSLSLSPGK
Procedure: as §1, §2

[9] = molecular target: T3, human Siglec-8 Domains 1, 2, and 3 …; assay: ELISA, coated fusion protein, antibody at 1 µg/ml
Procedure: as §1, §2

[10] = molecular target: T7, Dimeric Siglec-8 (human Siglec-8 ECD protein) (human, UniProt Q9NYZ4 17-363); assay: SPR (Biacore), antibody captured, dimeric Siglec-8 as analyte, 1:1 global fit (avidity)
T7 construct: extracellular domain; Analyte of the Biacore avidity assay
T7 sequence (Q9NYZ4 17-363): as the sequence (Q9NYZ4 17-363) above
Procedure: Antibody avidity determination was carried out by SPR analysis using a Biacore T200. Binding of human Siglec-8 ECD protein to mouse, chimeric and humanized anti-Siglec-8 antibodies was measured on a […]. The capture antibodies (goat-anti-human-Fc and goat-anti-mouse-Fc from Jackson Immunoresearch) were immobilized on a CM5 chip according to manufacturer's protocol (Biacore, GE). Flow-cell 1, 2 and 3 were immobilized with anti-human, and flow cell 4 with anti-mouse antibodies. The assay was conducted at 25° C., at a flow rate of […]. Assay buffer was 20 mM Tris-HCl pH 8.3, 150 mM Sodium Chloride, 0.05% Polysorbate 20, 10% glycerol, 0.1% BSA, made in ultrapure water. Dimeric Siglec-8 (impurities of monomeric and oligomeric Siglec-8 were removed by size-exclusion chromatography) was diluted in assay buffer from 15 nM to […] with 2× dilutions. Antibodies were captured to a change of approximately 120 RU. Six-minute high performance injections were conducted, followed by 120-minute dissociations. Flow cells were regenerated with 50 mM glycine pH 1.5. Results were double blanked with an empty reference cell and multiple assay buffer injections, and analyzed with 1:1 global fit parameters.

[11] = molecular target: T8, Siglec-8-Fc tagged protein (human Siglec-8 extracellular domain fused to an immunoglobulin Fc region) (human); assay: BLI (Octet Red 384), Siglec-8-Fc on anti-human capture sensors, Fab in solution
T8 construct: also called Siglec-8 Fc fusion protein
T8 sequence (chain, as listed by the source limits assumed): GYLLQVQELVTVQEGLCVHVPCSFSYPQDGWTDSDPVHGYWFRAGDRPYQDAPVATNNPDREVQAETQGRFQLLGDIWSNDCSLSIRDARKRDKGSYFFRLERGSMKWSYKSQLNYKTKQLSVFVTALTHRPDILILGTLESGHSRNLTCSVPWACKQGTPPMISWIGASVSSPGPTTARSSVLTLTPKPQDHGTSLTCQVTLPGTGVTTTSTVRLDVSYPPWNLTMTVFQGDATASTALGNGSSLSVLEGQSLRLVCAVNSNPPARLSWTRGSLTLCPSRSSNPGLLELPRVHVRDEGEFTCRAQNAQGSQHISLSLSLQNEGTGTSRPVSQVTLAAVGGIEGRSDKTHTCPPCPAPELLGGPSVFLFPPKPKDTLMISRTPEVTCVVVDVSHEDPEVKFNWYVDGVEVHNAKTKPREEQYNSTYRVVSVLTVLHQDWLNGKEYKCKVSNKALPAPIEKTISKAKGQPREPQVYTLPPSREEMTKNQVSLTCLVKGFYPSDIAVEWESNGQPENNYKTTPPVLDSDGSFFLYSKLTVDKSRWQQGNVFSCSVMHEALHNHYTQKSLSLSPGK
Procedure: Antibody affinity determination was also carried out by bio-layer interferometry (ForteBio). Binding of mouse, chimeric and humanized anti-Siglec-8 antibody Fab fragments to human Siglec-8 protein was measured on a ForteBio Octet Red 384. The assay was conducted at 25° C., at an RPM of 1000 in assay buffer. […] Fab fragments (antibodies were digested with Thermo-Pierce immobilized papain per manufacturer's specifications) were diluted in assay buffer from 50 nM to 1.56 nM with 2× dilutions. The Siglec-8-Fc tagged protein was immobilized on Anti-Human-Capture sensors at 100 nM in assay buffer for 3 min to a change in nm of approximately 1.2. Two-minute associations were conducted, followed by 10-minute dissociations. Results were blanked with an empty reference AHC sensor, and analyzed in ForteBio analysis software with 1:1 global fit parameters.

[12] = molecular target: T2, baboon Siglec-8 Domains 1, 2, and 3 …; assay: ELISA, coated fusion protein
Procedure: as §1, §2

T1 sequence (Q9NYZ4 17-499): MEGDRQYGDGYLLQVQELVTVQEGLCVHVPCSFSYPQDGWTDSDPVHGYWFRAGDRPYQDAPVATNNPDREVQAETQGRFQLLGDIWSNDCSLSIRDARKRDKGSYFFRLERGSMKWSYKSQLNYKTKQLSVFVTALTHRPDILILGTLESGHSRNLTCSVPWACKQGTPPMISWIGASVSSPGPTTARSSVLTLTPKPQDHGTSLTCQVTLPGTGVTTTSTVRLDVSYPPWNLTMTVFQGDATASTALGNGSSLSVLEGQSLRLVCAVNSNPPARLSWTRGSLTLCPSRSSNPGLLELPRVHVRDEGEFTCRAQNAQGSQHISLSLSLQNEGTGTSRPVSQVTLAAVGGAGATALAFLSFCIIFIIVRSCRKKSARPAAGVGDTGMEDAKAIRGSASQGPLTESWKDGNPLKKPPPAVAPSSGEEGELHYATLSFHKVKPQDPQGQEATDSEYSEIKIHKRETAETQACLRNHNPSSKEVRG

B1: murine 4F11 antibody (antibody, mouse IgG1, V domains shown)
VH: QVQLQQSGAELVKPGASVKISCKASGYAFRSSWMNWVKQRPGKGLEWIGQIYPGDDYTNYNGKFKGKVTLTADRSSSTAYMQLSSLTSEDSAVYFCARLGPYGPFADWGQGTLVTVSA
VL: QIVLTQSPAIVSASPGEKVTMTCSASSSVSYMYWYQQRPGSSPRLLIYDTSSLASGVPVRFSGSGSGTSYSLTISRIESEDAANYYCQQWNSDPYTFGGGTKLEIK
notes: murine IgG1 heavy chain and kappa light chain
Q: For B1, which “Mean EC50 (ng/ml) for eosinophil killing (2 donors)” value [1] is on record?
A: Its value is 5.9 ng/mL.

Q: Does B1 bind [2]?
A: Result: binds

Q: Does B1 bind [3]?
A: Result: binds

B2: murine 1H10 antibody (antibody, mouse IgG1, V domains shown)
VH: EVQLQQSGAELVRPGASVKLSCTASGFNIKDYYMYWVKQRPEQGLEWIGRIAPEDGDTEYAPKFQGKATVTADTSSNTAYLHLSSLTSEDTAVYYCTTEGNYYGSSILDYWGQGTTLTVSS
VL: DIQMTQTTSSLSASLGDRVTISCRASQDITNYLNWYQQKPDGTVKLLIYFTSRLHSGVPSRFSGSGSGTDYSLTISNLEQEDIATYFCQQGNTLPWTFGGGTKLEIK
notes: as for B1
Q: B2 was tested. Which “Mean EC50 (ng/ml) for eosinophil killing (2 donors)” value [1] did it give?
A: The value was 41 ng/mL.

Q: Does B2 bind [2]?
A: Result: binds

Q: Does B2 bind [3]?
A: Result: binds

B3: HEKAmut IgG1 antibody (antibody, V domains shown)
VH: EVQLVESGGGLVQPGGSLRLSCAASGFSLTIYGAHWVRQAPGKGLEWVGVIWAGGSTNYNSALMSRFTISKDNSKNTVYLQMNSLRAEDTAVYYCARDGSSPYYYSMEYWGQGTTVTVSS
VL: EIVLTQSPATLSLSPGERATLSCSATSSVSYMHWFQQKPGQAPRLLIYSTSNLASGIPARFSGSGSGTDFTLTISSLEPEDFAVYYCQQRSSYPYTFGPGTKLDIK
Q: B3 was tested. Which “Mean EC50 (ng/ml) for eosinophil depletion” value [4] did it give?
A: The value was 43.3 ng/mL.

B4: HA2KD (antibody, human IgG1, V domains shown)
VH: QVQLQESGPGLVKPSETLSLTCTVSGGSISIYGAHWIRQPPGKGLEWIGVIWAGGSTNYNSALMSRVTISVDTSKNQFSLKLSSVTAADTAVYYCARDGSSPYYYSMEYWGQGTLVTVSS
VL: B3 VL with L46W, Y95F
notes: human IgG1/kappa
Q: Does B4 bind [5]?
A: Result: no binding

B5: HEKFmut (antibody, human IgG1, V domains shown)
VH: B3 VH
VL: B3 VL with F70Y
notes: human IgG1/kappa; also called HEKFmut IgG1
Q: B5 was tested. Which “Mean EC50 (ng/ml) for eosinophil depletion” value [4] did it give?
A: Its value is 6.9 ng/mL.

Q: And the EC50 [6]?
A: The EC50 was 0.072 nM.

B6: HA2KG (antibody, human IgG1, V domains shown)
VH: B4 VH
VL: B3 VL with F35Y, Y95F
notes: human IgG1/kappa
Q: Does B6 bind [5]?
A: Result: no binding

B7: HA2KE (antibody, human IgG1, V domains shown)
VH: B4 VH
VL: B3 VL with I57V, Y95F
notes: human IgG1/kappa
Q: Does B7 bind [5]?
A: Result: no binding

B8: HEKA IgG1 antibody (antibody)
heavy: not shown
light: EIVLTQSPATLSLSPGERATLSCSATSSVSYMHWFQQKPGQAPRLLIYSTSNLASGIPARFSGSGSGTDFTLTISSLEPEDFAVYYCQQRSSYPFTFGPGTKLDIKRTVAAPSVFIFPPSDEQLKSGTASVVCLLNNFYPREAKVQWKVDNALQSGNSQESVTEQDSKDSTYSLSSTLTLSKADYEKHKVYACEVTHQGLSSPVTKSFNRGEC
Q: B8 was tested. Which “Mean EC50 (ng/ml) for eosinophil depletion” value [4] did it give?
A: Its value is 4.3 ng/mL.

Q: What about the EC50 [6] of the same binder?
A: The EC50 was 0.068 nM and 0.054 nM and 0.064 nM and 0.112 nM.

Q: Does B8 bind [7]?
A: Result: binds

Q: Does B8 bind [8]?
A: Result: binds

Q: Does B8 bind [9]?
A: Result: binds

Q: And the Kd [10]?
A: Its Kd is 0.017 nM.

Q: What about the koff [10] of the same binder?
A: Its koff is 1.11e-05 s⁻¹.

Q: And the kon [10]?
A: The kon was 638000 M⁻¹ s⁻¹.

B9: HEKA Fab fragment (Fab)
VH: B3 VH
light: B8 light
notes: Fab made by papain digestion
Q: Which results are given for B9?
A: Kd [11]: 0.464 nM; koff [11]: 0.000482 s⁻¹; kon [11]: 1.04e+06 M⁻¹ s⁻¹

B10: HEKA IgG4 antibody (antibody)
heavy: not shown
light: B8 light
Q: B10 was tested. Which “Mean EC50 (ng/ml) for eosinophil depletion” value [4] did it give?
A: Its value is 3.9 ng/mL.

B11: HEKF Fab fragment (Fab)
VH: B3 VH
light: B8 light with F70Y
notes: Fab made by papain digestion
Q: What does the source list for B11?
A: Kd [11]: 0.592 nM; koff [11]: 0.000545 s⁻¹; kon [11]: 920000 M⁻¹ s⁻¹

B12: HEKF IgG1 antibody (antibody, V domains shown)
VH: B3 VH
VL: EIVLTQSPATLSLSPGERATLSCSATSSVSYMHWFQQKPGQAPRLLIYSTSNLASGIPARFSGSGSGTDYTLTISSLEPEDFAVYYCQQRSSYPFTFGPGTKLDIKR
notes: also called HEKF T2
Q: With B12 as the binder, how does the “Mean EC50 (ng/ml) for eosinophil depletion” value [4] read?
A: Its value is 6.7 ng/mL.

Q: And the EC50 [6]?
A: Its EC50 is 0.064 nM and 0.074 nM and 0.052 nM and 0.097 nM.

Q: What about the Kd [10] of the same binder?
A: The Kd was 0.021 nM.

Q: And the koff [10]?
A: The koff was 1.4e-05 s⁻¹.

Q: What about the kon [10] of the same binder?
A: Its kon is 678000 M⁻¹ s⁻¹.

B13: mouse 2E2 antibody (antibody, mouse IgG1, kappa)
heavy: QVQLKRASGPGLVAPSQSLSITCTVSGFSLTIYGAHWVRQPPGKGLEWLGVIWAGGSTNYNSALMSRLSISKDNSKSQVFLKINSLQTDDTALYYCARDGSSPYYYSMEYWGQGTSVTVSSAKTTPPSVYPLAPGSAAQTNSMVTLGCLVKGYFPEPVTVTWNSGSLSSGVHTFPAVLESDLYTLSSSVTVPSSPRPSETVTCNVAHPASSTKVDKKIVPRDCGCKPCICTVPEVSSVFIFPPKPKDVLTITLTPKVTCVVVDISKDDPEVQFSWFVDDVEVHTAQTQPREEQFNSTFRSVSELPIMHQDWLNGKEFKCRVNSAAFPAPIEKTISKTKGRPKAPQVYTIPPPKEQMAKDKVSLTCMITDFFPEDITVEWQWNGQPAENYKNTQPIMNTNGSYFVYSKLNVQKSNWEAGNTFTCSVLHEGLHNHHTEKSLSHSPG
light: QIILTQSPAIMSASPGEKVSITCSATSSVSYMHWFQQKPGTSPKLWIYSTSNLASGVPVRFSGSGSGTSYSLTISRMEAEDAATYYCQQRSSYPFTFGSGTKLEIKADAAPTVSIFPPSSEQLTSGGASVVCFLNNFYPKDINVKWKIDGSERQNGVLNSWTDQDSKDSTYSMSSTLTLTKDEYERHNSYTCEATHKTSTSPIVKSFNRNEC
notes: murine IgG1/kappa; also called m2E2; murine 2E2
Q: Which results are given for B13?
A: Mean EC50 (ng/ml) for eosinophil depletion [4]: 6.8 ng/mL; Mean EC50 (ng/ml) for eosinophil killing (2 donors) [1]: 6.9 ng/mL; binding result [12]: no binding (tested: 1 µg/ml); Kd [10]: 0.028 nM; koff [10]: 1.54e-05 s⁻¹; kon [10]: 556000 M⁻¹ s⁻¹
